Measurements published in US20250092135A1 (NANJING LEADS BIOLABS, published 2025).

Columns and labels:
[1] = molecular target: T1, Human CD3D & CD3E heterodimer protein (human, UniProt P07766 23-126; P04234 22-105); experiment: BLI (ForteBio Octet RED96), antibody on AHC sensor, 100 nM analyte, 1:1 model
T1 construct: Bought recombinant heterodimer; also called human CD3 protein (Sino Biological, Cat #CT038-H2508H)
Description: (§1) In this experiment, the binding affinity of the bispecific antibody [0913] for human CD3D & CD3E heterodimer protein (Sino Biological, Cat #CT038-H2508H) and monkey CD3D & CD3E heterodimer protein (Acro biosystems, Cat #CDD-C52W4) was detected using ForteBio Octet RED96 according to the manufacturer's instructions.
(§2) Briefly, an AHC sensor (ForteBio, Cat #18-5060) was placed in a running buffer (1×PBS, Hyclone, Cat #SH30256.01, containing 0.02% Tween 20, pH 7.0) and pre-equilibrated at room temperature for 10 min.
(§3) The experimental data were fitted and calculated using a Fortebio Data Analysis software 1:1 binding model.

[2] = molecular target: T2, Cynomolgus monkey CD3D & CD3E heterodimer protein (cynomolgus monkey, UniProt Q95LI5 22-117; Q95LI8 22-105); experiment: as above
T2 construct: same catalogue number; also called monkey CD3 protein (Acro biosystems, Cat #CDD-C52W4)
Description: as §1, §2, §3

[3] = molecular target: T3, cynomolgus monkey GPRC5D protein (cynomolgus monkey, UniProt Q9NZD1 1-343 (human entry)); experiment: flow cytometry, HEK293T-CynoGPRC5D cells (sheet: 293T-cynoGPRC5D), PE anti-human IgG Fc secondary, MFI
T3 construct: also called CynoGPRC5D; on HEK293T-CynoGPRC5D cells
T3 chain: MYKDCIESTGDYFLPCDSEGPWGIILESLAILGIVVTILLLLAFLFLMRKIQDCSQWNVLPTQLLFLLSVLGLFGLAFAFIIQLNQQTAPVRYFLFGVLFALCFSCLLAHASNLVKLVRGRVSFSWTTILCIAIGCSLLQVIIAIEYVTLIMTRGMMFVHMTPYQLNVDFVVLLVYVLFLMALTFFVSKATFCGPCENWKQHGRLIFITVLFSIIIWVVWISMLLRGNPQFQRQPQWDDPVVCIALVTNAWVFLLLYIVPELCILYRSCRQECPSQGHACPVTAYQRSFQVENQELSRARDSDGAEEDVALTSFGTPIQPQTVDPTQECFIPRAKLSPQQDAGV
Experimental: The HEK293T-CynoGPRC5D cell line shown in Table 2 was subjected to enzymatic digestion to obtain a single cell suspension. The single cell suspension was centrifuged at room temperature at 400×g, and then the medium was discarded. The cell pellet was washed once with PBS and then resuspended in the serially diluted bifunctional antibodies shown in Table 5 (at an initial concentration of 115.6 nM, 4-fold gradient dilution, 8 concentration points in total), and the cells were incubated at 4° C. for 30 min. The cells were washed once with PBS, and then fluorescent secondary antibody R-PE-conjugated AffiniPure Goat Anti-Human IgG, Fcγ Fragment Specific (Jackson ImmunoResearch, Cat #109-116-098) diluted in a 1:200 ratio was added. The cells were incubated in the dark at 4° C. for 30 min. The cells were washed twice with PBS and then resuspended, and finally, two-channel fluorescence signals were detected using a Beckman Cytoflex flow cytometer.

human GPRC5D protein = molecular target: T4, human GPRC5D protein (human, UniProt Q9NZD1 1-345); experiment: flow cytometry, HEK293T cells stably expressing human GPRC5D (sheet: 293T-huGPRC5D), PE anti-human IgG Fc secondary, MFI
T4 construct: NCI-H929 cells express it endogenously in the functional assays; also called HuGPRC5D; huGPRC5D
Experimental: (2) Whether the anti-CD3/anti-GPRC5D bispecific antibodies in the present invention could bind to HEK293T cells stably expressing the human GPRC5D protein was determined by cell binding experiments. […] The plate was centrifuged at room temperature at 400×g, and then the supernatant was discarded. The cells were washed twice with PBS and centrifuged. The supernatant was discarded. The cell pellet was resuspended in fluorescent secondary antibody R-PE-conjugated AffiniPure Goat Anti-Human IgG, Fcγ Fragment Specific (Jackson ImmunoResearch, Cat #109-116-098) diluted in a 1:200 ratio. The cells were incubated in the dark at 4° C. for 30 min. The cells were washed twice with PBS, and 100 μL of PBS was added to each well to resuspend the cells. Fluorescence signals were detected using a Beckman Cytoflex flow cytometer.

[4] = molecular target: T5, human MUC16 protein endogenously expressed on cells (human, UniProt Q8WXI7 1-14507); experiment: flow cytometry, OVCAR3 cells (endogenous human MUC16), PE anti-human IgG Fc secondary, MFI; EC50 table under the plot, unit from the axis Conc.(nM)
T5 construct: whole, on cells; also called MUC16 on OVCAR3 cells; MUC16 in ovarian carcinoma tissue
Experimental: (1) Whether the anti-CD3/anti-MUC16 bispecific antibodies in the present invention could bind to the MUC16 protein endogenously expressed on human ovarian carcinoma cells (OVCAR3) (Cell Bank of Type Culture Collection Committee of the Chinese Academy of Sciences, Cat #TCHu228) was determined by cell binding experiments.
The experiments were performed using flow cytometry. OVCAR3 cells were digested, centrifuged and collected. The cells were resuspended in a PBS solution, and seeded into a 96-well plate (Corning, Cat #3799) at 1×10⁵ cells/well. The 96-well plate was centrifuged and then the supernatant was discarded. 100 μL of the serially diluted test bispecific antibody (at a maximum concentration of 200 nM, 5-fold dilution from 100 nM, 9 concentration points in total) was added to the OVCAR3 cells. The plate was incubated at 4° C. for 30 min and centrifuged (1000 rpm, 5 min), and then the supernatant was discarded. 100 μL of PBS solution was added to each well, and the cells were washed twice. 100 μL of fluorescent secondary antibody R-PE-conjugated AffiniPure Goat Anti-Human IgG, Fcγ Fragment Specific (Jackson ImmunoResearch, Cat #109-116-098) diluted in a ratio of 1:200 was then added. The cells were incubated at 4° C. for 30 min. After the cells were washed twice with the PBS solution, 100 μL of PBS solution was added to each well to resuspend the cells, and finally, fluorescence signals were detected using a BD Accuri C5 (BD Bioscience) flow cytometer according to the manufacturer's instructions. REGN4018 was used as a positive control.

[5] = molecular target: T6, rhesus monkey MUC16 protein (ECT_TM RhMuc16) on 293T cells (rhesus monkey); experiment: flow cytometry, 293T/rhesus MUC16 cells as printed on the sheet and in the legend (the example, paragraph 611, speaks of cynomolgus MUC16), PE anti-human IgG Fc secondary, MFI; EC50 table under the plot, unit from the axis Conc.(nM)
T6 chain: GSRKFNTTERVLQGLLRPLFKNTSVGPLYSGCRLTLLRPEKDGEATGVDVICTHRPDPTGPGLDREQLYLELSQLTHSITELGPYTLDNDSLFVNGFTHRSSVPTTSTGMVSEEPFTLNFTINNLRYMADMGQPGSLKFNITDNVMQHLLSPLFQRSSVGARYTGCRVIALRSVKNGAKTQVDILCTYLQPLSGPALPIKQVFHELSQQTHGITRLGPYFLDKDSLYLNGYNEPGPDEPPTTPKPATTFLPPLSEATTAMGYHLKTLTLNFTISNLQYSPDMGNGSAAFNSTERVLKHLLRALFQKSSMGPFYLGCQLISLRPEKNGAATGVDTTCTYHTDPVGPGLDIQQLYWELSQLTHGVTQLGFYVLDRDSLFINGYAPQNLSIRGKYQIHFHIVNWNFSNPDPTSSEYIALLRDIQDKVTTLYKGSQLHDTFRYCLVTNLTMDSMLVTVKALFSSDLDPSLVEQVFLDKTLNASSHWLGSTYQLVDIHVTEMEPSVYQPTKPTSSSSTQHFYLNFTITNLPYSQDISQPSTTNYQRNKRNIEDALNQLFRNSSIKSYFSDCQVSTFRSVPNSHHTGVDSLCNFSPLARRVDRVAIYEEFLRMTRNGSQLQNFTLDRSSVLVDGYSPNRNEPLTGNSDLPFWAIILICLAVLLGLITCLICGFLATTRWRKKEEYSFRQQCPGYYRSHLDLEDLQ
Experimental: Referring to the flow cytometry described above, the serially diluted test bispecific antibody (at an initial concentration of 100 nM, 5-fold dilution, 9 points) was added to the cells, and the plate was incubated at 4° C. for 30 min. The cells were washed twice with PBS, and then fluorescent secondary antibody R-PE-conjugated AffiniPure Goat Anti-Human IgG, Fcγ Fragment Specific was added. The cells were incubated at 4° C. for 30 min. The cells were washed twice with PBS and then resuspended, and finally, fluorescence signals were detected using a BD Accuri C5 (BD Bioscience) flow cytometer.

T2 sequence (Q95LI5 22-117 limits assumed, chain 1 of 2): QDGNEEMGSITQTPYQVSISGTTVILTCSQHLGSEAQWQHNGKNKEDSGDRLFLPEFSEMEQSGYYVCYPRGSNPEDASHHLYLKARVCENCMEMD
T2 sequence (Q95LI8 22-105 limits assumed, chain 2 of 2): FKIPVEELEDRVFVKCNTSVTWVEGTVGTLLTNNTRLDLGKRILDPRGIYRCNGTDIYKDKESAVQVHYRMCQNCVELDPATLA
T1 sequence (P07766 23-126 limits assumed, chain 1 of 2): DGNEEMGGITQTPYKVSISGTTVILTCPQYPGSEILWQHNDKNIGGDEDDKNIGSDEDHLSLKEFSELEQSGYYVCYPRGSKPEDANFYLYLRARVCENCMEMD
T1 sequence (P04234 22-105 limits assumed, chain 2 of 2): as the sequence (Q95LI8 22-105 limits assumed, chain 2 of 2) above, with V5I, K15N, V20I, T32S, N33D, N34I, A64T, N74S, L83V counted along it
T4 sequence (Q9NZD1 whole entry): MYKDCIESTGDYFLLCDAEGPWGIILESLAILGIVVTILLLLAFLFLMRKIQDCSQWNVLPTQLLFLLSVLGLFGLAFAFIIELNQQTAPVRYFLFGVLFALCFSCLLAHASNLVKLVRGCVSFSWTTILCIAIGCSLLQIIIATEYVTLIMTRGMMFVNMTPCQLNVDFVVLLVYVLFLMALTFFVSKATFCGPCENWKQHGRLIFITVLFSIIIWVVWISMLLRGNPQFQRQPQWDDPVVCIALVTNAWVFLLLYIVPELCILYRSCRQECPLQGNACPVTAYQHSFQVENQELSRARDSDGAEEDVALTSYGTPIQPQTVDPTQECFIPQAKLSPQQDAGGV

B1: anti-CD3/GPRC5D bispecific antibody Bi-29H6-6 (bispecific antibody)
heavy 1: QVQLVQSGAEVKKPGASVKVSCKASGYTFTTHYMYWVRQAPGQGLEWIGGINPSNEATNFNEKFKTKATLTVDKSTSTAYMELSSLRSEDTAVYYCTRVGGLSYTMDYWGQGTLVTVSSASTKGPSVFPLAPSSKSTSGGTAALGCLVKDYFPEPVTVSWNSGALTSGVHTFPAVLQSSGLYSLSSVVTVPSSSLGTQTYICNVNHKPSNTKVDKKVEPKSCDKTHTCPPCPAPEAAGGPSVFLFPPKPKDTLMISRTPEVTCVVVAVSHEDPEVKFNWYVDGVEVHNAKTKPREEQYNSTYRVVSVLTVLHQDWLNGKEYKCKVSNKALAAPIEKTISKAKGQPREPQVCTLPPSRDELTKNQVSLSCAVKGFYPSDIAVEWESNGQPENNYKTTPPVLDSDGSFFLVSKLTVDKSRWQQGNVFSCSVMHEALHNHYTQKSLSLSPGK
heavy 2: not shown
light: not shown
notes: G56E variant of the 29H6 VH; also called anti-GPRC5D/CD3 bifunctional antibody Bi-29H6-6
[1]
  Kd: 727 nM
  koff: 0.0158 s⁻¹
  kon: 21700 M⁻¹ s⁻¹
[2]
  Kd: 75.9 nM
  koff: 0.00631 s⁻¹
  kon: 83200 M⁻¹ s⁻¹
[3]
  EC50 (read off the curve): ~8 nM
Human GPRC5D protein
  EC50 (read off the curve): ~3 nM

B2: control antibody REGN4018 (bispecific antibody, human IgG4 S228P, kappa)
heavy 1: QVQLVESGGGLVKPGGSLRLSCAASGFTFSNYYMSWVRQAPGKGLEWISYISGRGSTIFYADSVKGRITISRDNAKNSLFLQMNSLRAEDTAVYFCVKDRGGYSPYWGQGTLVTVSSASTKGPSVFPLAPCSRSTSESTAALGCLVKDYFPEPVTVSWNSGALTSGVHTFPAVLQSSGLYSLSSVVTVPSSSLGTKTYTCNVDHKPSNTKVDKRVESKYGPPCPPCPAPPVAGPSVFLFPPKPKDTLMISRTPEVTCVVVDVSQEDPEVQFNWYVDGVEVHNAKTKPREEQFNSTYRVVSVLTVLHQDWLNGKEYKCKVSNKGLPSSIEKTISKAKGQPREPQVYTLPPSQEEMTKNQVSLTCLVKGFYPSDIAVEWESNGQPENNYKTTPPVLDSDGSFFLYSRLTVDKSRWQEGNVFSCSVMHEALHNHYTQKSLSLSLGK
heavy 2: EVQLVESGGGLVQPGRSLRLSCAASGFTFDDYSMHWVRQAPGKGLEWVSGISWNSGSIGYADSVKGRFTISRDNAKNSLYLQMNSLRAEDTALYYCAKYGSGYGKFYYYGMDVWGQGTTVTVSSASTKGPSVFPLAPCSRSTSESTAALGCLVKDYFPEPVTVSWNSGALTSGVHTFPAVLQSSGLYSLSSVVTVPSSSLGTKTYTCNVDHKPSNTKVDKRVESKYGPPCPPCPAPPVAGPSVFLFPPKPKDTLMISRTPEVTCVVVDVSQEDPEVQFNWYVDGVEVHNAKTKPREEQFNSTYRVVSVLTVLHQDWLNGKEYKCKVSNKGLPSSIEKTISKAKGQPREPQVYTLPPSQEEMTKNQVSLTCLVKGFYPSDIAVEWESNGQPENNYKTTPPVLDSDGSFFLYSRLTVDKSRWQEGNVFSCSVMHEALHNRFTQKSLSLSLGK
light: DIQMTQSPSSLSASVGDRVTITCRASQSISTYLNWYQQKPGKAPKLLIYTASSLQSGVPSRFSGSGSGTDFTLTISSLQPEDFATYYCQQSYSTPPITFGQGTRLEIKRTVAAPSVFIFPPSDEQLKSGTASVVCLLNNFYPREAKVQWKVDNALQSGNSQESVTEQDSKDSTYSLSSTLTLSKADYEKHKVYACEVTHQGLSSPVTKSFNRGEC
notes: Derived from US20190389966A1; heavy chains REGN4018-8767pH and REGN4018-G20, light chain REGN4018-8767pL; also called positive control
[4]
  EC50: 1.45 nM
[5]
  EC50: 3.74 nM
